The values that follow come from article PMC8151288.

Usually stoichiometry N stands for the number of molecules, sites or subunits per partner or assembly.

The target of assay [1] is His6-PA3027 (Pseudomonas aeruginosa PAO1161) (UniProt Q9HZH9). Description: cross-linking; purified His6-PA3027 cross-linked with increasing concentration of glutaraldehyde; Western blot with anti-His antibodies. Background: Immunoblotting shows a protein as a band on a membrane.
Assay [2] has the same target. As to the kind of experiment: SEC-MALS; 100 uL of 1 mg/mL His6-PA3027 on Superdex 200 Increase 10/300 in Buffer S (20 mM MES pH 6.5, 200 mM (NH4)2SO4, 200 mM NaCl), room temperature, 0.5 mL/min; monomer and dimer. For orientation: SEC sorts molecules by how far they enter the pores of the column.

On to “His6-PA3027 (from UniProt Q9HZH9 1-343) (natural protein)”, for which the stoichiometry N in assay [1] and in assay [2] was 2 in each case.
